Measurements taken from patent US20250346644A1 (LATTICON SUZHOU BIOPHARMACEUTICALS, published 2025).
Like-named read-outs stand apart in the source and are kept apart here. Each block holds one binder with its values, some of them ahead of it.

Experiments:
hIL2-DM-his = molecular target: T1, hIL2-DM-his (human, UniProt P60568 21-153); test: BLI ForteBio, Ab on Protein A sensor
T1 construct: expressed in ExpiCHO-S cells, nickel-column purified; also called hIL-2 mutein containing two point mutations K64G and N90R (with a his-tag); not shown: his-tag

hIL2-TM-his [1] = molecular target: T2, hIL2-TM-his (human, UniProt P60568 21-153); test: BLI ForteBio, Ab on Protein A sensor
T2 construct: also called hIL-2 mutein containing three point mutations K64G, N90R and M104E (with a his-tag); not shown: his-tag
T2 chain: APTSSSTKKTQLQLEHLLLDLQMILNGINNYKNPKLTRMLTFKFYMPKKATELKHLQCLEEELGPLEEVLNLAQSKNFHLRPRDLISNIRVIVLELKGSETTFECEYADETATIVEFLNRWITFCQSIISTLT

mIL2-his [2] = molecular target: T3, mIL2-his (mouse, UniProt P04351 21-169); test: BLI ForteBio, Ab on Protein A sensor
T3 construct: also called wild-type mouse IL-2 (with a his-tag); not shown: his-tag
T3 sequence (looked up): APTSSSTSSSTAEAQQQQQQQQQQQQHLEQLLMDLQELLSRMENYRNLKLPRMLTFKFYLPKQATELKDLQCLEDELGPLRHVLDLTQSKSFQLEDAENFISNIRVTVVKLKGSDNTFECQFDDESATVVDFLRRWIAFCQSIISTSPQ

mIL2-his [3] = molecular target: T3, mIL2-his; test: BLI ForteBio, Ab on Protein A sensor; remark: listed apart in the source
Protocol: (§1) After each cycle of association and dissociation steps, the sensor was regenerated by 10 mM glycine buffer (pH 1.5) and then stated with the next cycle of detection. After the detection, the association rate constant and dissociation rate constant between the antibody and antigen were fitted and extrapolated using the analytical software, and the value of affinity constant (KD) was calculated.

mIL2-his [4] = molecular target: T3, mIL2-his; test: ELISA, antibody captured by anti-human IgG, mIL2-his titrated
Protocol: (§2) ELISA was performed as follows: a goat anti-human IgG (Jackson Immunoresearch) was diluted to 1 μg/mL in 1×PBS and added to an ELISA plate at 100 μL/well, and then incubated at 4° C. overnight. The plate was washed with PBS and then blocked at room temperature for 1 hour after adding the blocking solution (PBST containing 1% BSA) to each well. […] The plate was washed with PBST; the HRP-labeled anti-6×His-tag secondary antibody (Proteintech) diluted at a ratio of 1:10,000 in blocking solution was then added to each well and incubated at room temperature for 1 hour. The plate was washed with PBST; the TMB chromogenic solution (Thermo) was added to each well and incubated in dark for 3-10 minutes at room temperature. The stop solution (2 M HCl) was added to each well, and OD values at a wavelength of 450-570 nm were read using a multimode microplate reader (Varioskan, Thermo).

hIL2Rβ (hCD122) = molecular target: T4, hIL2Rβ (hCD122) (human, UniProt P14784 27-239, limits assumed); test: ELISA (method of section 2.1.1): sample captured on coated goat anti-human IgG, hCD122 titrated; the x axis is the CD122 concentration
T4 construct: bought recombinant protein; also called hCD122 (Acro)
T4 sequence (looked up): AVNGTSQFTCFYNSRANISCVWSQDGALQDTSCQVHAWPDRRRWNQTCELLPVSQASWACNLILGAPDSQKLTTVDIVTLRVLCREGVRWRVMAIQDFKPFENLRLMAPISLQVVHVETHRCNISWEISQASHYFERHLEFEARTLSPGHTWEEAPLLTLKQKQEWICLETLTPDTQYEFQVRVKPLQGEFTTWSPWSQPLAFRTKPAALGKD
Protocol: as §2

[5] = molecular target: T5, high-affinity IL2R expressed on the surface of CTLL-2 cells; test: cell-based or functional assay
T5 sequence (P01590 whole entry, species assumed, looked up): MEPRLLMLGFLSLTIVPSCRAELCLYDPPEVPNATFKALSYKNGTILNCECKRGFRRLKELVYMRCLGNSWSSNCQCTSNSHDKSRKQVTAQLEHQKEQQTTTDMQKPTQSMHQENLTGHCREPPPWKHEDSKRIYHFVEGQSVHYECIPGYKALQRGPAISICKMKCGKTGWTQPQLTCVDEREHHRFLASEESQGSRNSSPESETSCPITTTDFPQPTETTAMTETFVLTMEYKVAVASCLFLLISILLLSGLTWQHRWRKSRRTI
T5 sequence (P16297 whole entry, species assumed, looked up): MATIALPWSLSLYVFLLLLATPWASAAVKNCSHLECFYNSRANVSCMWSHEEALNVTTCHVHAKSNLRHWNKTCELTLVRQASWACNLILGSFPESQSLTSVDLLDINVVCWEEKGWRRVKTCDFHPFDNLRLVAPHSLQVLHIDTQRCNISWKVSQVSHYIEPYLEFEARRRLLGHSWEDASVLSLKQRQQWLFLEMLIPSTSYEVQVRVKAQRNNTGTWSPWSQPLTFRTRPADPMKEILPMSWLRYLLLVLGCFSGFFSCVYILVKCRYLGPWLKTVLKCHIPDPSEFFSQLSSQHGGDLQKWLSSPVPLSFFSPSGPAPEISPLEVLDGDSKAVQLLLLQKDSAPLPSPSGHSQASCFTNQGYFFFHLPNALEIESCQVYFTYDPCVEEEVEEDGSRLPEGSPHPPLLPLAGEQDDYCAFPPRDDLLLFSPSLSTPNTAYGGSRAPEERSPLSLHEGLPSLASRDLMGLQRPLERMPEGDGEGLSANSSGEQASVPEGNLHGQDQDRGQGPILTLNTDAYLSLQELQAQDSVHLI
T5 sequence (P34902 whole entry, species assumed, looked up): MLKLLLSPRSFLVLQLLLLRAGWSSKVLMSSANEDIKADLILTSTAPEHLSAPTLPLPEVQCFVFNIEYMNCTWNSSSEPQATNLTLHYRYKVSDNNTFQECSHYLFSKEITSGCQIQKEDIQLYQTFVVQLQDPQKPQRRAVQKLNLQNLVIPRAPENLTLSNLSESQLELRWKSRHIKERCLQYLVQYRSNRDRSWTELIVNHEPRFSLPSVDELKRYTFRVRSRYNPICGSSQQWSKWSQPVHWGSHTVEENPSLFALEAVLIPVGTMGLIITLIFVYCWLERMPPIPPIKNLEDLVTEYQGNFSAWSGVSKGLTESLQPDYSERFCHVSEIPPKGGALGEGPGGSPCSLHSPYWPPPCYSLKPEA

hIL2Rα (hCD25) = molecular target: T6, hIL2Rα (hCD25) (human, UniProt P01589 22-213, limits assumed); test: ELISA (method of section 4.2.1): sample captured on coated goat anti-human IgG, hCD25 titrated; the x axis is the CD25 concentration
T6 construct: bought recombinant protein; also called hCD25 (Acro); biotin-CD25 (Acro)
T6 sequence (looked up): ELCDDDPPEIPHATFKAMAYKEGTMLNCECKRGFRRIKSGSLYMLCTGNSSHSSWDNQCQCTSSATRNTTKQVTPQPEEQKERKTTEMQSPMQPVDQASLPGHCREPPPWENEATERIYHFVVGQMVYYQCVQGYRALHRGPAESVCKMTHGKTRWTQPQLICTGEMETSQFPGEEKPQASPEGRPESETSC

hIL2-TM-his [6] = molecular target: T2, hIL2-TM-his; test: BLI ForteBio, Ab on Protein A sensor
Protocol: as §1

mIL2-his [7] = molecular target: T3, mIL2-his; test: BLI ForteBio, Ab on Protein A sensor; remark: listed apart in the source
Protocol: as §1

Kd (hIL2-DM-his): 39.4 nM
koff (hIL2-DM-his): 0.0106 s⁻¹
kon (hIL2-DM-his): 269000 M⁻¹ s⁻¹
Kd (hIL2-TM-his [1]): 22.6 nM
koff (hIL2-TM-his [1]): 0.00476 s⁻¹
kon (hIL2-TM-his [1]): 210000 M⁻¹ s⁻¹
Kd (mIL2-his [2]): 0.996 nM
koff (mIL2-his [2]): 0.000182 s⁻¹
kon (mIL2-his [2]): 183000 M⁻¹ s⁻¹
Kd (mIL2-his [3]): 0.996 nM
koff (mIL2-his [3]): 0.000182 s⁻¹
kon (mIL2-his [3]): 183000 M⁻¹ s⁻¹
EC50 (mIL2-his [4]): 0.0139 µg/mL
B1: S4B6 chimeric antibody (antibody, human IgG1, V domains shown)
VH: EVQLQESGAELVRPGTSVKLSCKVSGDTITAYYLHFVRQRPGQGLEWIGRIDPEDDSTKYAENFKNKATFTADASSNTAYLRLSSLTSEDTATYFCTTVTFYYSRELRWFAYWGQGTLVTVSS
VL: DIQVTQSPASLSASLEEIVTITCQASQDIGNYLSWYQQKLGKSPQLLIHSATSLADGVPSRFSGSRSGTQYSLKINRLQVEDTGIYYCLQHYSTPYTFGAGTKLELK
notes: also called chS4B6

Kd (mIL2-his [3]): 1.4 nM
koff (mIL2-his [3]): 0.00121 s⁻¹
kon (mIL2-his [3]): 864000 M⁻¹ s⁻¹
EC50 (mIL2-his [4]): 0.0357 µg/mL
B2: hS4B6-H6K7 (antibody, V domains shown)
VH: QVQLVQSGAEVKKPGATVKISCKVSGDTITAYYLHWVRQAPGQGLEWIGRIDPEDDSTKYAENFKNRVTITADTSTNTAYMELSSLRSEDTAVYYCTTVTFYYSRELRWFAYWGQGTLVTVSS
VL: DIQMTQSPSSLSASVGDRVTITCQASQDIGNYLSWYQQKPGKAPKLLIHSATSLADGVPSRFSGSGSGTDFTLTISSLQPEDFATYYCLQHYSTPYTFGGGTKVEIK
notes: full antibody

binding result (hIL2Rβ (hCD122)): binds
B3: IC-Cy08-QR (other)
heavy: APTSSSTKKTQLQLEHLLLDLQMILNGINNYKNPKLTRMLTFKFYMPKKATELKHLQCLEEELGCLEEVLNLAQSKNFHLRPRDLISNIRVIVLELKGSETTFMCEYADETATIVEFLNRWITFCQSIISTLTGGGGSGGGGSGGGGSGGGGSQVQLVQSGAEVKKPGATVKISCKVSGDTITAYYMHWVRQAPGQGLEWIGRIDPEDDSTKYAENFKGRVTITADTSTDTAYMELSSLRSEDTAVYYCTTVTCYYSRELRWFAYWGQGTLVTVSS
VL: DIVLTQSPATLSLSPGERATLSCQASRDIGNYLSWYQQKPGQAPRLLIYSATSLASGIPARFSGSRSGTDFTLTISSLEPEDFAVYYCLQHYSTPYTFGQGTKLEIK
notes: IC-Cy08 with light chain Q27R; also called H6K3(H)-Cy-08-QR

Kd (mIL2-his [3]): 25.9 nM
koff (mIL2-his [3]): 0.000719 s⁻¹
kon (mIL2-his [3]): 27700 M⁻¹ s⁻¹
EC50 (mIL2-his [4]): 0.0357 µg/mL
B4: hS4B6-H1K1 (antibody, V domains shown)
VH: QVQLQESGPGLVKPSETLSLTCTVSGDTITAYYLHWIRQPPGKGLEWIGRIDPEDDSTKYAENFKNRVTISVDTSKNQFSLKLSSVTAADTAVYYCTTVTFYYSRELRWFAYWGQGTTVTVSS
VL: DIVLTQSPGTLSLSPGERATLSCQASQDIGNYLSWYQQKPGQAPRLLIYSATSLADGIPDRFSGSRSGTDYTLTISRLEPEDFAVYYCLQHYSTPYTFGQGTKVEIK
notes: full antibody

Activity in Promoting CTLL-2 Cell Proliferation (EC50, nM) [5]: 9.17 nM
B5: K2G11-Cy04 (other)
heavy: SSSTKKTQLQLEHLLLDLQMILNGINNYKNPKLTRMLTFKFYMPKKATELKHLQCLEEELGPLEEVLNLAQSKNFHLRPRDLISNIRVIVLELKGSETTFCCEYADETATIVEFLNRWITFLQSIISTLTGGGGSGGGGSGGGGSGGGGSQVQLVQSGAEVKKPGATVKISCKVSGDTITAYYMHWVRQAPGQGLEWIGRIDPDDDSTKYAENFKGRVTITADTSTDTAYMELSSLRSEDTAVYYCTTITFLYSRELRWFAYWGQGTLVTVSS
VL: DIVLTQSPATLSLSPGERATLSCQASQYISNYLSWYQQKPGQAPRLLIYSACSLASGIPARFSGSRSGTDFTLTISSLEPEDFAVYYCLQHYSTPYTFGQGTKLEIK

Kd (mIL2-his [3]): 13.2 nM
koff (mIL2-his [3]): 0.00265 s⁻¹
kon (mIL2-his [3]): 200000 M⁻¹ s⁻¹
EC50 (mIL2-his [4]): 0.185 µg/mL
B6: hS4B6-H3K3 (antibody, V domains shown)
VH: QVTLKESGPVLVKPTQTLTLTCTVSGDTITAYYLHWIRQPPGKALEWIGRIDPEDDSTKYAENFKNRLTFSADTSKNQVVLTMTNMDPVDTATYYCARVTFYYSRELRWFAYWGQGTLVTVSS
VL: DIVLTQSPATLSLSPGERATLSCQASQDIGNYLSWYQQKPGQAPRLLIYSATSLADGIPARFSGSRSGTDYTLTISSLEPEDFAVYYCLQHYSTPYTFGQGTKLEIK
notes: full antibody

binding result (hIL2Rβ (hCD122)): binds
B7: IC-Cy08-QS (other)
heavy: APTSSSTKKTQLQLEHLLLDLQMILNGINNYKNPKLTRMLTFKFYMPKKATELKHLQCLEEELGCLEEVLNLAQSKNFHLRPRDLISNIRVIVLELKGSETTFMCEYADETATIVEFLNRWITFCQSIISTLTGGGGSGGGGSGGGGSGGGGSQVQLVQSGAEVKKPGATVKISCKVSGDTITAYYMHWVRQAPGQGLEWIGRIDPEDDSTKYAENFKGRVTITADTSTDTAYMELSSLRSEDTAVYYCTTVTCYYSRELRWFAYWGQGTLVTVSS
VL: DIVLTQSPATLSLSPGERATLSCQASSDIGNYLSWYQQKPGQAPRLLIYSATSLASGIPARFSGSRSGTDFTLTISSLEPEDFAVYYCLQHYSTPYTFGQGTKLEIK
notes: IC-Cy08 with light chain Q27S; also called H6K3(H)-Cy-08-QS

binding result (hIL2Rα (hCD25)): no binding (tested: 10 µg/mL)
B8: H6K3(H)-Cy10 (other)
heavy: SSSTKKTQLQLEHLLLDLQMILNGINNYKNPKLTRMLTCKFYMPKKATELKHLQCLEEELGPLEEVLNLAQSKNFHLRPRDLISNIRVIVLELKGSETTFMCEYADETATIVEFLNRWITFLQSIISTLTGGGGSGGGGSGGGGSGGGGSQVQLVQSGAEVKKPGATVKISCKVSGDTITAYYMHWVRQAPGQGLEWIGRIDPEDDSTKYAENFKGRVTITADTSTDTAYMELSSLRSEDTAVYYCTTVTCYYSRELRWFAYWGQGTLVTVSS
VL: DIVLTQSPATLSLSPGERATLSCQASQDIGNYLSWYQQKPGQAPRLLIYSATSLASGIPARFSGSRSGTDFTLTISSLEPEDFAVYYCLQHYSTPYTFGQGTKLEIK
notes: fusion with the parental antibody hS4B6-H6K3(H), disulfide IL:42-H:97; also called H6K3-Cy10

Kd (hIL2-TM-his [6]): 9.88 nM
koff (hIL2-TM-his [6]): 0.0027 s⁻¹
kon (hIL2-TM-his [6]): 274000 M⁻¹ s⁻¹
Kd (mIL2-his [7]): 0.254 nM
koff (mIL2-his [7]): 0.000236 s⁻¹
kon (mIL2-his [7]): 928000 M⁻¹ s⁻¹
B9: hS4B6-H6K3(H) (antibody, V domains shown)
VH: QVQLVQSGAEVKKPGATVKISCKVSGDTITAYYMHWVRQAPGQGLEWIGRIDPEDDSTKYAENFKGRVTITADTSTDTAYMELSSLRSEDTAVYYCTTVTFYYSRELRWFAYWGQGTLVTVSS
VL: DIVLTQSPATLSLSPGERATLSCQASQDIGNYLSWYQQKPGQAPRLLIYSATSLASGIPARFSGSRSGTDFTLTISSLEPEDFAVYYCLQHYSTPYTFGQGTKLEIK
notes: H6K3 with L34M, N65G, N76D (heavy) and D56S, Y71F (light)
